Like-named read-outs stand apart in the source and are kept apart here.
Experiment: Ex vivo biodistribution of 177Lu-labeled peptide tetramers in H2009 xenografted SCID mice
Conditions: CB17 SCID, mouse, iv, total radioactivity; for tissue uptake at 1.5 h: 90 min p.i.; for tissue uptake at 72 h: 199 pmol, 3 d p.i.; for tissue uptake at 24 h: 154 pmol, 24 h p.i.
Summary of the method: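 SCID mice carried subcutaneous H2009 xenografts on the right shoulder. 177Lu-labeled conjugates were injected i.v., and ex vivo organ distribution was measured at two time points post-injection.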

[1] = adrenals, H2009 bearing SCID mice, read-out: Adrenals %IA/g
[2] = blood, H2009 bearing SCID mice, read-out: Blood %IA/g
[3] = bone, H2009 bearing SCID mice, read-out: Bone %IA/g
[4] = heart (myocard), H2009 bearing SCID mice, read-out: Heart (myocard) %IA/g
[5] = kidneys, H2009 bearing SCID mice, read-out: Kidneys %IA/g
[6] = large intestine (empty), H2009 bearing SCID mice, read-out: Large intestine (empty) %IA/g
[7] = liver, H2009 bearing SCID mice, read-out: Liver %IA/g
[8] = lung, H2009 bearing SCID mice, read-out: Lung %IA/g
[9] = muscle, H2009 bearing SCID mice, read-out: Muscle %IA/g
[10] = pancreas, H2009 bearing SCID mice, read-out: Pancreas %IA/g
[11] = small intestine (empty), H2009 bearing SCID mice, read-out: Small intestine (empty) %IA/g
[12] = spleen, H2009 bearing SCID mice, read-out: Spleen %IA/g

Structure (SMILES): CC(C)C[C@@H]1NC(=O)[C@H](CC(=O)O)NC(=O)CNC(=O)[C@H](CCCNC(=N)N)NC(=O)[C@H](Cc2ccc(O)cc2)NC(=O)[C@H](CCCCNC(=O)CCc2cn(CCCNC(=O)CCP(=O)(O)CN3CCN(CP(=O)(O)CCC(=O)NCCCn4cc(CCC(=O)NCCCC[C@H]5C(=O)N[C@@H](Cc6ccc(O)cc6)C(=O)N[C@@H](CCCNC(=N)N)C(=O)NCC(=O)N[C@@H](CC(=O)O)C(=O)N[C@@H](CC(C)C)C(=O)N[C@@H](C)C(=O)N[C@@H](Cc6ccc(O)cc6)C(=O)N6CCC[C@@H]6C(=O)N5C)nn4)CCN(CP(=O)(O)CCC(=O)NCCCn4cc(CCC(=O)NCCCC[C@H]5C(=O)N[C@@H](Cc6ccc(O)cc6)C(=O)N[C@@H](CCCNC(=N)N)C(=O)NCC(=O)N[C@@H](CC(=O)O)C(=O)N[C@@H](CC(C)C)C(=O)N[C@@H](C)C(=O)N[C@@H](Cc6ccc(O)cc6)C(=O)N6CCC[C@@H]6C(=O)N5C)nn4)CCN(CP(=O)(O)CCC(=O)NCCCn4cc(CCC(=O)NCCCC[C@H]5C(=O)N[C@@H](Cc6ccc(O)cc6)C(=O)N[C@@H](CCCNC(=N)N)C(=O)NCC(=O)N[C@@H](CC(=O)O)C(=O)N[C@@H](CC(C)C)C(=O)N[C@@H](C)C(=O)N[C@@H](Cc6ccc(O)cc6)C(=O)N6CCC[C@@H]6C(=O)N5C)nn4)CC3)nn2)N(C)C(=O)[C@H]2CCCN2C(=O)[C@H](Cc2ccc(O)cc2)NC(=O)[C@H](C)NC1=O [Compound 177Lu-Y8, metal not drawn]
- tissue uptake at 1.5 h (H2009 tumor, 124 pmol, H2009 bearing SCID mice, read-out: Tumor H2009 %IA/g): 5.89 %ID/g
- tissue uptake at 72 h (H2009 tumor, H2009 bearing SCID mice, read-out: Tumor H2009 %IA/g): 1.67 %ID/g
- tissue uptake at 1.5 h (adrenals, 124 pmol, H2009 bearing SCID mice, read-out: Adrenals %IA/g): 0.71 %ID/g
- tissue uptake at 24 h [1]: 0.25 %ID/g
- tissue uptake at 72 h [1]: 0.22 %ID/g
- tissue uptake at 1.5 h (adrenals, + 50 nmol non-labeled compound 10 min prior to activity, n = 2, read-out: Adrenals %IA/g, + 50 nmol cold): 0.53 %ID/g
- tissue uptake at 1.5 h (blood, 124 pmol, H2009 bearing SCID mice, read-out: Blood %IA/g): 2.54 %ID/g
- tissue uptake at 24 h [2]: 0.04 %ID/g
- tissue uptake at 72 h [2]: 0.03 %ID/g
- tissue uptake at 1.5 h (blood, + 50 nmol non-labeled compound 10 min prior to activity, n = 2, read-out: Blood %IA/g, + 50 nmol cold): 1.06 %ID/g
- tissue uptake at 1.5 h (bone, 124 pmol, H2009 bearing SCID mice, read-out: Bone %IA/g): 3.24 %ID/g
- tissue uptake at 24 h [3]: 0.68 %ID/g
- tissue uptake at 72 h [3]: 0.57 %ID/g
- tissue uptake at 1.5 h (bone, + 50 nmol non-labeled compound 10 min prior to activity, n = 2, read-out: Bone %IA/g, + 50 nmol cold): 0.76 %ID/g
- tissue uptake at 1.5 h (heart (myocard), 124 pmol, H2009 bearing SCID mice, read-out: Heart (myocard) %IA/g): 1.01 %ID/g
- tissue uptake at 24 h [4]: 0.16 %ID/g
- tissue uptake at 72 h [4]: 0.13 %ID/g
- tissue uptake at 1.5 h (heart (myocard), + 50 nmol non-labeled compound 10 min prior to activity, n = 2, read-out: Heart (myocard) %IA/g, + 50 nmol cold): 0.64 %ID/g
- tissue uptake at 1.5 h (kidneys, 124 pmol, H2009 bearing SCID mice, read-out: Kidneys %IA/g): 166 %ID/g
- tissue uptake at 24 h [5]: 235 %ID/g
- tissue uptake at 72 h [5]: 237 %ID/g
- tissue uptake at 1.5 h (kidneys, + 50 nmol non-labeled compound 10 min prior to activity, n = 2, read-out: Kidneys %IA/g, + 50 nmol cold): 178 %ID/g
- tissue uptake at 1.5 h (large intestine (empty), 124 pmol, H2009 bearing SCID mice, read-out: Large intestine (empty) %IA/g): 3.66 %ID/g
- tissue uptake at 24 h [6]: 1.46 %ID/g
- tissue uptake at 72 h [6]: 0.48 %ID/g
- tissue uptake at 1.5 h (large intestine (empty), + 50 nmol non-labeled compound 10 min prior to activity, n = 2, read-out: Large intestine (empty) %IA/g, + 50 nmol cold): 0.89 %ID/g
- tissue uptake at 1.5 h (liver, 124 pmol, H2009 bearing SCID mice, read-out: Liver %IA/g): 1.16 %ID/g
- tissue uptake at 24 h [7]: 0.98 %ID/g
- tissue uptake at 72 h [7]: 0.7 %ID/g
- tissue uptake at 1.5 h (liver, + 50 nmol non-labeled compound 10 min prior to activity, n = 2, read-out: Liver %IA/g, + 50 nmol cold): 0.7 %ID/g
- tissue uptake at 1.5 h (lung, 124 pmol, H2009 bearing SCID mice, read-out: Lung %IA/g): 5.63 %ID/g
- tissue uptake at 24 h [8]: 1.2 %ID/g
- tissue uptake at 72 h [8]: 0.73 %ID/g
- tissue uptake at 1.5 h (lung, + 50 nmol non-labeled compound 10 min prior to activity, n = 2, read-out: Lung %IA/g, + 50 nmol cold): 3.39 %ID/g
- tissue uptake at 1.5 h (muscle, 124 pmol, H2009 bearing SCID mice, read-out: Muscle %IA/g): 0.87 %ID/g
- tissue uptake at 24 h [9]: 0.36 %ID/g
- tissue uptake at 72 h [9]: 0.23 %ID/g
- tissue uptake at 1.5 h (muscle, + 50 nmol non-labeled compound 10 min prior to activity, n = 2, read-out: Muscle %IA/g, + 50 nmol cold): 0.2 %ID/g
- tissue uptake at 1.5 h (pancreas, 124 pmol, H2009 bearing SCID mice, read-out: Pancreas %IA/g): 0.42 %ID/g
- tissue uptake at 24 h [10]: 0.14 %ID/g
- tissue uptake at 72 h [10]: 0.12 %ID/g
- tissue uptake at 1.5 h (pancreas, + 50 nmol non-labeled compound 10 min prior to activity, n = 2, read-out: Pancreas %IA/g, + 50 nmol cold): 0.19 %ID/g
- tissue uptake at 1.5 h (small intestine (empty), 124 pmol, H2009 bearing SCID mice, read-out: Small intestine (empty) %IA/g): 3 %ID/g
- tissue uptake at 24 h [11]: 1.03 %ID/g
- tissue uptake at 72 h [11]: 0.16 %ID/g
- tissue uptake at 1.5 h (small intestine (empty), + 50 nmol non-labeled compound 10 min prior to activity, n = 2, read-out: Small intestine (empty) %IA/g, + 50 nmol cold): 0.62 %ID/g
- tissue uptake at 1.5 h (spleen, 124 pmol, H2009 bearing SCID mice, read-out: Spleen %IA/g): 8.41 %ID/g
- tissue uptake at 24 h [12]: 1.89 %ID/g
- tissue uptake at 72 h [12]: 2.01 %ID/g

— paper PMC11187563, “The importance of tyrosines in multimers of cyclic RGD nonapeptides: towards αvβ6-integrin targeted radiotherapeutics” (RSC Medicinal Chemistry, 2024)
